Laboratory results reported in the supplement of paper PMC9112550, “Optimization of the antimicrobial peptide Bac7 by deep mutational scanning” (BMC Biology, 2022).
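Note: peptides expressed intracellularly from a pBAD plasmid library in pooled LB shake-flask culture, induced with 0.3% L-arabinose, DNA abundance read by NGS, three biological replicates, DESeq2 with apeglm shrinkage.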

Each sequence was assayed on Escherichia coli TOP10 (assay: shrunken log2 fold change of peptide-encoding DNA abundance (4.5 h post-induction vs induction); higher = less antimicrobial activity (less host growth inhibition)). Conditions: time post-induction: 4.5 h; library: site-saturation at positions 5, 18, 19, 20.
In the case of RRIRFRPPRLPRPRPRPGNPPRP, the “shrunken log2 fold change” value was -0.00343. With RRIRQRPPRLPRPRPRPGPDPRP the “shrunken log2 fold change” value was 0.163. In the case of RRIRLRPPRLPRPRPRPECHPRP, the “shrunken log2 fold change” value was 0.0679. In the case of RRIRDRPPRLPRPRPRPFLTPRP, the “shrunken log2 fold change” value was -0.0719. RRIRKRPPRLPRPRPRPEIAPRP was tested, and the “shrunken log2 fold change” value was 2.48. In the case of RRIRMRPPRLPRPRPRPHVTPRP, the “shrunken log2 fold change” value was -0.441. With RRIRWRPPRLPRPRPRPLYRPRP the “shrunken log2 fold change” value was -0.552. With RRIRTRPPRLPRPRPRPANNPRP the “shrunken log2 fold change” value was -0.736. With RRIRQRPPRLPRPRPRPANGPRP the “shrunken log2 fold change” value was 0.184. For RRIRCRPPRLPRPRPRPGYAPRP, the “shrunken log2 fold change” value was 0.085. For RRIRDRPPRLPRPRPRPYIGPRP, the “shrunken log2 fold change” value was -0.0691. For RRIRVRPPRLPRPRPRPCMAPRP, the “shrunken log2 fold change” value was -0.276. For RRIRGRPPRLPRPRPRPASCPRP, the “shrunken log2 fold change” value was 1.06. RRIRMRPPRLPRPRPRPQATPRP was tested, and the “shrunken log2 fold change” value was -0.00147. With RRIRPRPPRLPRPRPRPANGPRP the “shrunken log2 fold change” value was 0.0748. RRIRNRPPRLPRPRPRPQEIPRP was tested, and the “shrunken log2 fold change” value was -0.00783. In the case of RRIRPRPPRLPRPRPRPCGEPRP, the “shrunken log2 fold change” value was -0.0188. With RRIRFRPPRLPRPRPRPKQKPRP the “shrunken log2 fold change” value was -0.00156. With RRIRGRPPRLPRPRPRPKVQPRP the “shrunken log2 fold change” value was 1.06. In the case of RRIRPRPPRLPRPRPRPPQQPRP, the “shrunken log2 fold change” value was 0.345. With RRIRARPPRLPRPRPRPKMEPRP the “shrunken log2 fold change” value was 0.229. RRIRTRPPRLPRPRPRPCMTPRP was tested, and the “shrunken log2 fold change” value was -0.111. RRIRIRPPRLPRPRPRPMGMPRP was tested, and the “shrunken log2 fold change” value was -0.253. RRIRCRPPRLPRPRPRPYEKPRP was tested, and the “shrunken log2 fold change” value was -0.0213. For RRIRHRPPRLPRPRPRPCTWPRP, the “shrunken log2 fold change” value was -0.0924. For RRIRNRPPRLPRPRPRPYIIPRP, the “shrunken log2 fold change” value was -0.156. With RRIRIRPPRLPRPRPRPPVRPRP the “shrunken log2 fold change” value was 0.172. With RRIRPRPPRLPRPRPRPVGQPRP the “shrunken log2 fold change” value was 0.102. For RRIRQRPPRLPRPRPRPQHYPRP, the “shrunken log2 fold change” value was -0.447. With RRIRKRPPRLPRPRPRPAYIPRP the “shrunken log2 fold change” value was 0.0173. With RRIRMRPPRLPRPRPRPSIHPRP the “shrunken log2 fold change” value was -0.823. With RRIRQRPPRLPRPRPRPPAGPRP the “shrunken log2 fold change” value was 0.866. With RRIRIRPPRLPRPRPRPQPHPRP the “shrunken log2 fold change” value was -0.00842. With RRIRARPPRLPRPRPRPQLVPRP the “shrunken log2 fold change” value was 0.308. RRIRERPPRLPRPRPRPIWPPRP was tested, and the “shrunken log2 fold change” value was 0.0406. With RRIRQRPPRLPRPRPRPPPGPRP the “shrunken log2 fold change” value was 0.751. For RRIRGRPPRLPRPRPRPNHMPRP, the “shrunken log2 fold change” value was -0.0194. For RRIRSRPPRLPRPRPRPNNCPRP, the “shrunken log2 fold change” value was -0.186. With RRIRLRPPRLPRPRPRPGCQPRP the “shrunken log2 fold change” value was -0.00705. For RRIRKRPPRLPRPRPRPVLLPRP, the “shrunken log2 fold change” value was 0.122. With RRIRHRPPRLPRPRPRPVKDPRP the “shrunken log2 fold change” value was -0.549. In the case of RRIRIRPPRLPRPRPRPEYSPRP, the “shrunken log2 fold change” value was -0.119. In the case of RRIRMRPPRLPRPRPRPQKQPRP, the “shrunken log2 fold change” value was 0.0157. In the case of RRIRARPPRLPRPRPRPWVVPRP, the “shrunken log2 fold change” value was 0.0153. With RRIRMRPPRLPRPRPRPEQAPRP the “shrunken log2 fold change” value was 4.07. In the case of RRIRYRPPRLPRPRPRPMEEPRP, the “shrunken log2 fold change” value was -0.138. For RRIRLRPPRLPRPRPRPSRNPRP, the “shrunken log2 fold change” value was -0.0105. With RRIRQRPPRLPRPRPRPLNFPRP the “shrunken log2 fold change” value was -0.233. RRIRARPPRLPRPRPRPEWSPRP was tested, and the “shrunken log2 fold change” value was 0.949. RRIRVRPPRLPRPRPRPLSPPRP was tested, and the “shrunken log2 fold change” value was -0.172. In the case of RRIRSRPPRLPRPRPRPHQYPRP, the “shrunken log2 fold change” value was -0.549. RRIRYRPPRLPRPRPRPTYHPRP was tested, and the “shrunken log2 fold change” value was -0.663. With RRIRWRPPRLPRPRPRPENIPRP the “shrunken log2 fold change” value was -0.148. With RRIRGRPPRLPRPRPRPPSHPRP the “shrunken log2 fold change” value was 0.597. For RRIRPRPPRLPRPRPRPRSWPRP, the “shrunken log2 fold change” value was 0.533. For RRIRIRPPRLPRPRPRPVHPPRP, the “shrunken log2 fold change” value was -0.0793. In the case of RRIRSRPPRLPRPRPRPMCAPRP, the “shrunken log2 fold change” value was 0.29. RRIRWRPPRLPRPRPRPVEKPRP was tested, and the “shrunken log2 fold change” value was 0.234. For RRIRVRPPRLPRPRPRPTVTPRP, the “shrunken log2 fold change” value was 0.167. With RRIRHRPPRLPRPRPRPTCSPRP the “shrunken log2 fold change” value was 0.0782. With RRIRARPPRLPRPRPRPCFNPRP the “shrunken log2 fold change” value was 0.0639. With RRIRNRPPRLPRPRPRPLSQPRP the “shrunken log2 fold change” value was -0.00581. For RRIRWRPPRLPRPRPRPYGQPRP, the “shrunken log2 fold change” value was 0.051. With RRIRPRPPRLPRPRPRPPQCPRP the “shrunken log2 fold change” value was 0.228. For RRIRDRPPRLPRPRPRPTNGPRP, the “shrunken log2 fold change” value was -0.0673. For RRIRNRPPRLPRPRPRPEWLPRP, the “shrunken log2 fold change” value was 0.226. In the case of RRIRMRPPRLPRPRPRPKDPPRP, the “shrunken log2 fold change” value was 0.438. For RRIRSRPPRLPRPRPRPAVAPRP, the “shrunken log2 fold change” value was 0.0474. For RRIRTRPPRLPRPRPRPSKEPRP, the “shrunken log2 fold change” value was -0.598. RRIRARPPRLPRPRPRPMKIPRP was tested, and the “shrunken log2 fold change” value was 0.275. For RRIRPRPPRLPRPRPRPPMVPRP, the “shrunken log2 fold change” value was 0.0188. For RRIRVRPPRLPRPRPRPLLKPRP, the “shrunken log2 fold change” value was 0.0167. In the case of RRIRYRPPRLPRPRPRPDTWPRP, the “shrunken log2 fold change” value was -0.0135. In the case of RRIRIRPPRLPRPRPRPARRPRP, the “shrunken log2 fold change” value was 0.72. RRIRHRPPRLPRPRPRPTQFPRP was tested, and the “shrunken log2 fold change” value was -0.631.
